Data taken from patent US6610479.

How the values were obtained:
[1] = target: human serum albumin (HSA) (UniProt P02768)
[2] = target: streptavidin (on Dynabeads) (UniProt P22629)
[3] = target: human IgG (on Sepharose, Pharmacia) (human); assay: cell-based or functional assay

Chain of UniProt P22629 (P22629 whole entry, looked up): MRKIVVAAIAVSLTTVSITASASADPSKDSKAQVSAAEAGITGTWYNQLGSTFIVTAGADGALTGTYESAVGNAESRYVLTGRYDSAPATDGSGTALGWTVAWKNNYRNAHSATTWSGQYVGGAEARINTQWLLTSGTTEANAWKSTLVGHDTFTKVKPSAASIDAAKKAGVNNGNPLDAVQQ

Peak area of the 190-bp extension product, heat-released enzyme (95° C.-treated Z-ΔTaq-human IgG-Sepharose) [3]	Peak area of the 190-bp extension product, immobilized enzyme (polymerase activity at 50° C.) [3]	increase of the area of the 190-peak, free or heat-released enzyme against enzyme on beads heated only to 50° C. [3]	Substance	hot start PCR of K-ras (primer-dimer formation) [1]	hot-start effect in kRAS PCR (primer-dimer formation) [1]	primer extension (190 nt product) at 60° C., immobilized enzyme [1]	relative polymerase activity at 45-75° C. and after 95° C. [1]	hot-start effect in kRAS PCR (primer-dimer formation) [2]
			TagTaq fusion protein (Bio-His6-ABP fused to Taq DNA polymerase I residues 3-832)	using either a conventional hot start procedure (lane 8) or immobilized TagTaq polymerase (lanes 1 to 3), high yields of essentially pure, full-length PCR products free from primer-dimers are obtained	All the immobilised enzymes show hot-start effect in PCR with regard to preventing primer-dimer formation	TagTaq protein: HSA-Sepharose incubated with the substrate at the same temperature resulted in only very small amounts of the 190 nt extension product	TagTaq indeed is active in the presence of HSA-Sepharose, but only after incubation at a temperature high enough to break the ABP-HSA affinity interaction	All the immobilised enzymes show hot-start effect in PCR with regard to preventing primer-dimer formation
8380	594	> 15 times	Z-ΔTaq fusion protein (from UniProt P0AD92 1-8; P38507 212-269; P19821 236-832) (enzyme)					
